Source: patent publication US10640563B2, “Anti-B7-H3 antibodies and antibody drug conjugates” (AbbVie Inc., priority 2016, dated 2020)

T1: soluble ECD of human B7-H3 (Homo sapiens, UniProt Q5ZPR3)
T1 construct: His tag (6xHis) (C); made in house
T1 sequence (Q5ZPR3 with tags, fused parts or gaps): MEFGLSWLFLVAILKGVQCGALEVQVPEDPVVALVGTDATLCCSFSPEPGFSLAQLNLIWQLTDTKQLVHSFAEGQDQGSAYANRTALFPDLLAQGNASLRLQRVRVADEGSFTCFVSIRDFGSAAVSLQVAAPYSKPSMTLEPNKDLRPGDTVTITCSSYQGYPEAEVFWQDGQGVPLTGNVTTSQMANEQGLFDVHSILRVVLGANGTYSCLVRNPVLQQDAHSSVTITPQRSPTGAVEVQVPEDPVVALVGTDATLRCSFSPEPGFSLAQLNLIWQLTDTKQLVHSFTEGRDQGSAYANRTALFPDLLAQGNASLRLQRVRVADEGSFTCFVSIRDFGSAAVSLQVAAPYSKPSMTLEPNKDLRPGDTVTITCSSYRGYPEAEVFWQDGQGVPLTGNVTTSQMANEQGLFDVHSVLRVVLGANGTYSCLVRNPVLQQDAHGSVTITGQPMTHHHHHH

T2: B7-H3 (Homo sapiens, UniProt Q5ZPR3)
T2 construct: His tag (6xHis) (C); made in house
T2 sequence (Q5ZPR3 with tags, fused parts or gaps): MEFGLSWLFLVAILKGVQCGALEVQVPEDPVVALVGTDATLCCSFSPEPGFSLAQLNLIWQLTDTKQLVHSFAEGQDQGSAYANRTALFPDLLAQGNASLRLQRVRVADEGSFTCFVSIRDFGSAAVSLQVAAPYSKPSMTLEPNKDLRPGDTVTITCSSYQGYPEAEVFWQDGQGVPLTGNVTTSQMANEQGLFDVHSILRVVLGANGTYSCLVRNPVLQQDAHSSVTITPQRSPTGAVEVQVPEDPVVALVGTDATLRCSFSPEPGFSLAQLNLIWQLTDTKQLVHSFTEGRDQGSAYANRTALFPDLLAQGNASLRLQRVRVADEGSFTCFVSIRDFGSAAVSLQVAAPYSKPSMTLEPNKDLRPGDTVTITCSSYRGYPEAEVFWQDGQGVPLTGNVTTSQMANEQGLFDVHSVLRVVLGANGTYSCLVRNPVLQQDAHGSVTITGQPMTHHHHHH


How the values were obtained:
[1] = biological target: T1, soluble ECD of human B7-H3; experiment: Biacore T200 SPR binding kinetics, mAb capture; details: Biacore T200, Fc capture of mAb, B7-H3 ECD as analyte, 1:1 binding model
Description: The binding affinity of the purified anti-B7-H3 monoclonal antibodies was determined by surface […]. […] The binding kinetics were derived from SPR measurements using a Biacore T200 instrument and a mAb capture approach (as described in the materials and methods below).
Biacore T200 SPR instruments were used to measure the binding kinetics of human B7-H3 (analyte) binding to various mAbs (ligands). The assay format was Fc-based capture via immobilized anti-mouse (Fc) (Pierce 31170) or immobilized anti-human (Fc) (Pierce 31125). A standard amine coupling protocol was employed to immobilize the capture reagents via primary amines to the carboxy-methyl (CM) dextran surface of CM5 sensorchips (Biacore); capture antibodies were coupled to a level of approximately 5000 RU. For binding kinetic measurements the assay buffer was HBS-EP+ (Biacore): 10 mM Hepes, pH7.4, 150 mM NaCl, 3 mM EDTA, 0.05% polysorbate 20. During the assay, all measurements were referenced against the capture surface alone. Each assay cycle consisted of the following steps: 1) Capture of ligand to approximately 50 RU; 2) Analyte injection over both reference and test surface, 240 μL at 80 μL/min, after which the dissociation was monitored for 900 seconds at 80 μL/min; 3) Regeneration of capture surface with low pH glycine. For kinetic determinations analyte injections were 3-point, 9-fold dilution series of 900 nM, 100 nM and 11.11 nM, buffer only injections were included for secondary referencing. Data were processed and fit to a 1:1 binding model using Biacore T200 Evaluation Software to determine the binding kinetic rate constants, ka (on-rate) and kd (off-rate), and the equilibrium dissociation constant (affinity, KD).

[2] = test system: soluble ECD of cyno B7-H3; experiment: Biacore T200 SPR binding kinetics, mAb capture; parameters: species or system cynomolgus monkey; details: Biacore T200, Fc capture of mAb, B7-H3 ECD as analyte, 1:1 binding model
B7-H3 = biological target: T2, B7-H3; experiment: Pair-wise SPR binding assay for epitope grouping; details: simultaneous binding assay, 12° C.
Source text: Pair-wise binding assays performed on Biacore T200 SPR instruments were used to determine the relative epitope grouping for the murine anti-B7-H3 mAbs as described in the methods below. […] Epitope groups are represented as individual ovals, some of which overlap with each other. Antibodies in different epitope groups can bind to B7-H3 simultaneously and likely bind to different epitopes while antibodies within a given epitope group cannot bind to B7-H3 simultaneously and likely bind to overlapping epitopes. The grouping information was derived from a simultaneous binding assay as described in materials and methods. Ab3, Ab4, Ab5, Abl 1, Ab12, and Ab8 groupings were ambiguous.
Pair-wise binding assays performed on Biacore T200 SPR instruments were used to determine the relative epitope grouping for a series of anti-B7-H3 mAbs. The assay format was Fc-based capture via immobilized anti-mouse(Fc) (Pierce 31170) or immobilized anti-human (Fc) (Pierce 31125). A standard amine coupling protocol was employed to immobilize the capture reagents via primary amines to the carboxy-methyl (CM) dextran surface of CM5 sensorchips (Biacore); capture antibodies were coupled to a level of approximately 2000 RU. Epitope grouping measurements were done at 12° C. (low temperature allows for grouping information on fast off-rate mAbs), the assay buffer was HBS-EP+(Biacore): 10 mM Hepes, pH7.4, 150 mM NaCl, 3 mM EDTA, 0.05% polysorbate 20. Each assay cycle consisted of the following steps in a four flowcell system: 1) separate test mAbs were captured in flowcells 2, 3 & 4 (flowcell 1 was reference, no test mAb); 2) all 4 flowcells were then blocked by injection with isotype control mAb or isotype mAb cocktail at 50 μg/mL; 3) all 4 flowcells were then injected with antigen or buffer only (buffer only is for double referencing, done for each mAb pair individually); 4) all 4 flowcells were then injected with 2nd test mAb at 10 μg/mL; 5) all 4 flowcells were then regenerated with glycine, pH1.5. The assay was done for each test mAb pair in reciprocal orientations. Simultaneous binding was evaluated examining the ratio of the 2nd test mAb response to the Ag response (RUmAb2/RUAg); if this ratio was equal to or greater than 0.2 the interaction was scored as a simultaneous binder. From this pair-wise binding assay data a “venn” style diagram was constructed manually to depict relative epitope groupings.

soluble ECD of cyno B7-H3, sequence (as listed by the source): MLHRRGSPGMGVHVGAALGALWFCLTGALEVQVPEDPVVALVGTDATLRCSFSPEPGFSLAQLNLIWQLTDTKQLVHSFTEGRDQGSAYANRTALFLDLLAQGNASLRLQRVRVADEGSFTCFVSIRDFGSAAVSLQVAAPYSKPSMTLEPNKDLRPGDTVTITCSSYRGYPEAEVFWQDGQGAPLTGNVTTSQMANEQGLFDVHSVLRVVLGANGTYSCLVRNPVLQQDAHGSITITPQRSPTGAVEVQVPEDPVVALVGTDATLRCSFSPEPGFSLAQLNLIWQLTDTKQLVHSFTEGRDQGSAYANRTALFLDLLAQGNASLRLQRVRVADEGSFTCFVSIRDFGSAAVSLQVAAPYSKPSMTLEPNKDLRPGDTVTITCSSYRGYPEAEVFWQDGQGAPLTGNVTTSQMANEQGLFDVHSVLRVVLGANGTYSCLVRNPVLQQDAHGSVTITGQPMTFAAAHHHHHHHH

| huB7-H3 ka [1] [M⁻¹ s⁻¹] | huB7-H3 kd [1] [s⁻¹] | cynoB7-H3 ka [2] [M⁻¹ s⁻¹] | cynoB7-H3 kd [2] [s⁻¹] | relative human B7-H3 epitope grouping (B7-H3) | Molecule |
| --- | --- | --- | --- | --- | --- |
| 690000 | 0.0011 | 540000 | 0.00096 | ambiguous | Ab4: murine anti-B7-H3 mAb (mouse hybridoma derived) (antibody, V domains shown) VH: QVQLQQPGAELVKPGASVKLSCKASGYSFTSYWMHWVKQRPGQGLEWIGMIHPNSGSNNYNEKFKSKATLTVDKSSNTAYMQLSSLTSEDSAVYYCARRLGLHFDYWGQGTTLTVSS VL: DIVMTQSQKFMSTPVGDRVSITCKASQNVGTAVAWYQQKPGQSPKLLIYSASNRYTGVPDRFTGSGSGTDFTLTISNMQSEDLADYFCQQYSSYPYTFGGGTKLEIK |
| 20000 | 0.00089 | 27000 | 7.2e-05 | ambiguous | Ab11: murine anti-B7-H3 mAb (mouse hybridoma derived) (antibody, V domains shown) VH: EVKLVESGGGLVQPGGSLRLSCATSGFTFTNYYMSWVRQPPGKALEWLGFIRNKANDYTTEYSASVKGRFTISRDNSQSILYLQMNTLRAEDSATYYCARESPGNPFAYWGQGTLVTVSA VL: DIVMTQSPSSLTVTAGEKVTMTCKSSQSLLNSGTQKNFLTWYQQKPGQPPKLLIYWASTRESGVPDRFTGSGSGTDFTLTISSVQAEDLAVYFCQNDYIYPLTFGAGTKLELK |
| 1.3e+06 | 0.012 | 1.4e+06 | 0.28 | ambiguous | Ab5: murine anti-B7-H3 mAb (mouse hybridoma derived) (antibody, V domains shown) VH: QVQLQQPGDELVKPGASVKLSCKTSGYTFTTDWMHWVKQRPGQGLEWIGMIHPNSGTTNYNEKFKSKAALTVDKSSSTACMQLSSLTSEDSAVYYCARSYWKWYFDVWGTGTTVTVSS VL: QIVLTQSPAIMSASLGEEITLTCSASSSVSYMHWYQQKSGTSPKLLIYSTSNLASGVPSRFSGSGSGTFYSLTISSVEAEDSADYYCHQWTSYMYTFGGGTKLEIK |
| 520000 | 0.01 | 380000 | 0.01 | ambiguous | Ab3: murine anti-B7-H3 mAb (mouse hybridoma derived) (antibody, V domains shown) VH: QVQLQQPGAELVKPGASVKLSCKASGYTFSSYWMHWVKQRPGQGLEWIGLIHPDSGSTNYNEMFKNKATLTVDRSSSTAYVQLSSLTSEDSAVYFCAGGGRLYFDYWGQGTTLTVSS VL: DVVMTQTPLSLPVSLGDQASISCRSSQSLVHSNGDTYLRWYLQKPGQSPKLLIYKVSNRFSGVPDRFSGSGSGTDFTLKITRVEAEDLGVYFCSQSTHVPYTFGGGTKLEIK |
| 38000 | 0.00025 | 55000 | 1e-05 | ambiguous | Ab12: murine anti-B7-H3 mAb (mouse hybridoma derived) (antibody, V domains shown) VH: EVQLVESGGGLVKPGGSLKLSCAASGFTFSSYAMSWVRQTPEKRLEWVATISSGTNYTYYPDSVKGRFTISRDNAKNTLYLQMTSLRSEDTAMYYCARQGRYSWIAYWGQGTLVTVSA VL: DIVLTQSPASLAVSLGQRATISCRASKSVSTSDYSYMHWNQQKPGQPPKLLIYLASNLESGVPARFSGSGSGTDFTLNIHPVEEEDAATYYCQHSRELLTFGAGTKLELK |
